Patent US7595168B2, “Method of screening for substances useful for transdifferentiation of microglia into neurons” (Eisai R&D Management Co., Ltd., priority 2006, dated 2009)

Tested on: microglia
Assay: Action of BMP on transdifferentiation of microglia into neurons; immunocytochemical marker quantification
Format: cell-based, rat
Settings: day 5 after enrichment; 100 ng/ml noggin in medium containing 70% FCS, 2 days
Experimental: The cerebral cortex was isolated from newborn Wistar rats aged from 0 to 1 day (obtained from Shimizu Experimental Material Co. Ltd.) and cultured in an Eagle's minimum essential medium (EMEM) supplemented with 10% fetal calf serum (FCS) and […] insulin at 37° C. in an atmosphere of 5% CO2. After 14 to 16 days of incubation, microglia were isolated and prepared by the enriching procedure.
The cells were fixed with 4% paraformaldehyde and then reacted individually with an anti-CD11b antibody ([…], Chemicon International) or an anti-MAP2 antibody ([…], DakoCytomation) as a primary antibody and with Cy2-conjugated goat anti-mouse IgG (H+L) (Jackson ImmunoResearch) or Cy3-conjugated goat anti-rabbit IgG (H+L) (Jackson ImmunoResearch) as a secondary antibody. The CD11b is a marker for microglia and the MAP2 is a marker for neurons. […]
After immunostaining the cells, images (200× magnification) of 8 fields per case were randomly obtained using a fluorescent microscope and MataMorph software (Molecular Devices). The numbers of cells expressing individual markers were counted and the average rates to the total number of cells were used as data. […]
Quantification was carried out in the same manner as in Example 1.

B1: noggin: a BMP inhibitor (N6784), Sigma (protein, UniProt Q13253 28-232, looked up)
Noggin: QHYLHIRPAPSDNLPLVDLIEHPDPIFDPKEKDLNETLLRSLLGGHYDPGFMATSPPEDRPGGGGGAAGGAEDLAELDQLLRQRPSGAMPSEIKGLEFSEGLAQGKKQRLSKKLRRKLQMWLWSQTFCPVLYAWNDLGSRFWPRYVKVGSCFSKRSCSVPEGMVCKPSKSVHLTVLRWRCQRRGGQRCGWIPIQYPIISECKCSC
effect on transdifferentiation of microglia into neurons by 70% serum: this transdifferentiation was suppressed
